The text below walks through data of US20220411498A1 (JACOBIO PHARMACEUTICALS, published 2022).

Test [1] deals with T1, cyno CD39 on the cell surface (293T/17-cyno CD39 cells) (cyno, UniProt P49961 7-510 (human entry)).
T1 chain: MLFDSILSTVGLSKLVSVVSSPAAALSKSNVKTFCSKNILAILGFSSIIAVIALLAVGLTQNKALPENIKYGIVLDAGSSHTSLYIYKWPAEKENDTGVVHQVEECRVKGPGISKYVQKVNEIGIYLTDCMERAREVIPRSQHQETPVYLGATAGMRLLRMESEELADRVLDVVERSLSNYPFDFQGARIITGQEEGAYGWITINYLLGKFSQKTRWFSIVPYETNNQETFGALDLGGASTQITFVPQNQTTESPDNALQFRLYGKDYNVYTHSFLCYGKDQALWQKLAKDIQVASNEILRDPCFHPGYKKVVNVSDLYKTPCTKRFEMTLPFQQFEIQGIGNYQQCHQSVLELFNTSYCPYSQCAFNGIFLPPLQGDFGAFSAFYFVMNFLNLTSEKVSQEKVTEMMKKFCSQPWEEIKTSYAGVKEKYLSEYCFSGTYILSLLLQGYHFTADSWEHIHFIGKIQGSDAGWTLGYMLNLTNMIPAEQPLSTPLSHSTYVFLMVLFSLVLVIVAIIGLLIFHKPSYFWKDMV
Put plainly: cell-based or functional assay.

For test [2], the target named is T2, huCD39 on the cell surface (293T/17-huCD39 cells) (human, UniProt P49961 1-510).
T2 sequence (looked up): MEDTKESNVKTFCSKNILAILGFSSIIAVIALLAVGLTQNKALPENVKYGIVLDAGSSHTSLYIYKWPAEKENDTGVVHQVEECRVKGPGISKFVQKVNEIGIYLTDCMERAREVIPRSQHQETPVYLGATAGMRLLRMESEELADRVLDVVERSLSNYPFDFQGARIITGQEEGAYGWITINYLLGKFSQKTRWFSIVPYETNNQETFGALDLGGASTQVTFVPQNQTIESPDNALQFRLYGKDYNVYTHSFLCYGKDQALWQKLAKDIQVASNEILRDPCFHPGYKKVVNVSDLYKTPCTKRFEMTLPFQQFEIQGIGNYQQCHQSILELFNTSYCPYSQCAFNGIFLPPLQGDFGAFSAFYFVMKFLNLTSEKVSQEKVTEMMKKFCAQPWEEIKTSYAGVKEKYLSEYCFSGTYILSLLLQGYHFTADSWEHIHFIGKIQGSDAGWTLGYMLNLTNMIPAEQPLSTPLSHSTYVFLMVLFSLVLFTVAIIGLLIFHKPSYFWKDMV
Nature of the test: cell-based or functional assay.

The target in test [3] is T2, huCD39 on the cell surface …. Nature of the test: flow cytometry on 293T/17-huCD39 cells. Here is the method:
(§1) Flow cytometry assay: recombinant host cell line 293T/17-huCD39 cells expressing huCD39 and recombinant host cell line 293T/17-cyno CD39 cells expressing cyno CD39 were used to evaluate the binding ability of the chimeric antibody to the natural CD39 protein on the cell surface. The recombinant cells were resuspended in PBS buffer, and 2×10⁶ cells were added to a 96-well U-plate. The chimeric antibody in a certain gradient dilution range incubated for 1h at 4° C. in a refrigerator or on ice, centrifuged at 1500 rpm for 3 min at 4° C., washed three times with PBS buffer, and then incubated for 30 min at 4° C. in the refrigerator or on ice with diluted Alexa Fluor 488-labeled goat anti-human polyclonal antibody (pAb): Goat anti-Human IgG (H+L) Cross-Adsorbed Secondary Antibody, Alexa Fluor 488 (thermo). Finally the cells were washed three times with PBS as described above and analyzed in MACSQuant flow cytometry. GraphPad Prism software was used to generate data plots and count affinity data (FIG. 2). The results are shown in Table 2, and the EC₅₀ values of each chimeric antibody of 293T/17-huCD39 and 293T/17-cyno CD39 was at the level of 10⁻⁹M.
For orientation: In flow cytometry, cells or beads pass a laser one at a time.

Test [4] concerns the target T1, cyno CD39 on the cell surface …. Put plainly: flow cytometry on 293T/17-cyno CD39 cells. Here is the method: as §1
In test [5] the target is T3, huCD39 recombinant protein (human, UniProt P49961 38-478).
T3 construct: the entry is the extracellular domain and ends in a histidine tag; also called soluble huCD39 protein; human CD39 extracellular domain recombinant protein
T3 sequence: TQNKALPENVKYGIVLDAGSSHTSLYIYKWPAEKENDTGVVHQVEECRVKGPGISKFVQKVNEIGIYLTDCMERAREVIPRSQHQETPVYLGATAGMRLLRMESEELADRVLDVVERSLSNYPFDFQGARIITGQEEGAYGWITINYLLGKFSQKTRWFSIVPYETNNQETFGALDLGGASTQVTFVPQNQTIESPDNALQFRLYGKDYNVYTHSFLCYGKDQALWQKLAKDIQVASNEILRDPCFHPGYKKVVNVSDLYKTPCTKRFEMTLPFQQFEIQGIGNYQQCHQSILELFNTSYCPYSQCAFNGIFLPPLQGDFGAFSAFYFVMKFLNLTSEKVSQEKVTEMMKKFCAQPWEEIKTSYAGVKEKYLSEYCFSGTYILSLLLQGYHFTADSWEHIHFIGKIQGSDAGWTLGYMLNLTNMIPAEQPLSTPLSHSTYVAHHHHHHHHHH
Put plainly: indirect ELISA, huCD39 recombinant protein coated at 1 ug/mL. Here is the method:
The Fv region of the four mouse-derived antibodies obtained in Example 1 was fused with the human IgG2 Fc region and constructed into the pcDNA3.1 vector. Then transfected 293F cells to express the antibody proteins, and the antibodies were purified by ProteinA affinity chromatography. […] The next day, the plates were washed 5 times with PBS buffer and blocked with 200 μL/well of 2% skimmed milk powder for 1 h. A certain dose range of chimeric CD39 antibody was incubated for 1 h at room temperature; then washed 5 times with PBST washing buffer (PBS, 0.05% Tween 20). 100 μL of HRP-labeled secondary antibody was added to each well and the plates were incubated for 30 min at room temperature. The plates were washed 5 times again and TMB (Life Technologies) was added for color development for 5 to 10 min. At last, 1N HCl was added to terminate the reaction, and the OD value was measured at 450 nm. GraphPad Prism software was used to generate data plots and the affinity data was counted (FIG. 1).
(In general: In an ELISA, binding on a coated surface is turned into a signal by an enzyme label.)

B1: 216 hIgG2 (antibody, V domains shown)
VH: EVQLVESGGGLVKPGGSLKLPCAASGFTFSDYGMHWVRQAPEKGLEWVAYISSGSSIIYYADTVKGRFTISRDNAKNTLFLQMTSLRSEDTAMYYCARDLYYDHVLDYWGQGTTLTVAS
VL: DIQMTQSPSSLSASLGERVSLTCRASQEISGYLIWLQQKPDGTIKRLIYAASTLDSGVPKRFSGNRSGSDYSLTISSLESEDFADYYCLQYASYPRTFGGGTKLEIKR
notes: Chimeric antibody: mouse Fv fused to the human IgG2 constant region; also called chimeric antibody 216
Turning to B1, in test [1], the “Blocking of ATPase activity on cell surface (293T/17-cyno CD39, CellTiter Glo): Bottom” value was determined as 55600; the “Blocking of ATPase activity on cell surface (293T/17-cyno CD39, CellTiter Glo): EC50” value was determined as 0.024 nM; the “Blocking of ATPase activity on cell surface (293T/17-cyno CD39, CellTiter Glo): Top” value was found to be 275000. Besides, in test [2], the “Blocking of ATPase activity on cell surface (293T/17-huCD39, CellTiter Glo): EC50” value (from here on “Blocking … (293T/17-huCD39, CellTiter Glo): EC50”) was determined as 0.011 nM and the “Blocking of ATPase activity on cell surface (293T/17-huCD39, CellTiter Glo): Top” value (“Blocking … (293T/17-huCD39, CellTiter Glo): Top” for short) stood at 1.03e+06. Moreover, in test [3], the Bottom came to 2.17, the EC50 was 5.92 nM and the Top amounted to 151. In test [4], this molecule returned a Bottom of 1.81, an EC50 of 11 nM and a Top of 191. Further, in test [5], the Bottom came out at 0.06 OD450, the EC50 was determined as 2.43 nM and the Top came to 1.43 OD450.

B2: 217 hIgG2 (antibody, V domains shown)
VH: EVQLVESGGGLVKPGGSLKLSCAASGFTFSDYGMHWVRQAPEKGLEWVAYISSGSSVIYYVDTVKGRFTISRDNAKNTLFLQMTSLRSEDTAMYYCARDLYYDHVLDSWGQGTTLTVSS
VL: DIQMTQSPSSLSASLGERVSLTCRASQEIGGYLSWLQQKPDGTIKRLIYAASTLDSGVPKRFSGSRSGSDYSLTISSLESEDFADYYCLQYASYPRTFGGGTKLEIKR
notes: Chimeric antibody: mouse Fv fused to the human IgG2 constant region
Take B2: in test [1], the “Blocking of ATPase activity on cell surface (293T/17-cyno CD39, CellTiter Glo): Bottom” value is 42200; the “Blocking of ATPase activity on cell surface (293T/17-cyno CD39, CellTiter Glo): EC50” value is 0.029 nM; the “Blocking of ATPase activity on cell surface (293T/17-cyno CD39, CellTiter Glo): Top” value turned out to be 283000. In addition, in test [2], the “Blocking of ATPase activity on cell surface (293T/17-huCD39, CellTiter Glo): Bottom” value came to 147000; the “Blocking … (293T/17-huCD39, CellTiter Glo): EC50” value is 0.008 nM; the “Blocking … (293T/17-huCD39, CellTiter Glo): Top” value was 1.19e+06. In test [3], this molecule gave a Bottom of 5.8, an EC50 of 3.8 nM and a Top of 116. In test [4], the Bottom worked out at 3, the EC50 came to 9.49 nM and the Top amounted to 160. Besides, in test [5], the Bottom was found to be 0.07 OD450, the EC50 worked out at 4.8 nM and the Top was 1.39 OD450.

B3: 201 hIgG2 (antibody, V domains shown)
VH: EVQLVESGGGLVKPGGSLKLSCAASGFTFSDYGMHWVRQAPEKGLEWVAYISSGSSIMYYADTVKGRFTISRDNAKNTLFLQMASLRSEDTAMYYCARDLYYDHVLDYWGQGTTLTVSS
VL: DIQMTQSPSSLSASLGERVSLTCRASQEIRGYLIWLQQKPGGTIKRLIYAASTLDSGVPKRFSGSRSGSDYSLTISSLESEDFADYYCLQYTSYPRTFGGGTKLEIKR
notes: Chimeric antibody: mouse Fv fused to the human IgG2 constant region, expressed in 293F cells; also called chimeric antibody 201
On to B3, for which, in test [1], the “Blocking of ATPase activity on cell surface (293T/17-cyno CD39, CellTiter Glo): Bottom” value was 42300; the “Blocking of ATPase activity on cell surface (293T/17-cyno CD39, CellTiter Glo): EC50” value turned out to be 0.014 nM; the “Blocking of ATPase activity on cell surface (293T/17-cyno CD39, CellTiter Glo): Top” value amounted to 232000. Moreover, in test [2], the “Blocking of ATPase activity on cell surface (293T/17-huCD39, CellTiter Glo): Bottom” value turned out to be 119000; the “Blocking … (293T/17-huCD39, CellTiter Glo): EC50” value came out at 0.004 nM; the “Blocking … (293T/17-huCD39, CellTiter Glo): Top” value was 871000. Further, in test [3], the Bottom was -6.24; the midpoint of the response, the EC50, lay at 6.56 nM; the Top stood at 189. In test [4], this molecule displayed a Bottom of 3.23, an EC50 of 8.69 nM and a Top of 209. In test [5], the Bottom is 0.046 OD450, the EC50 came to 1.4 nM and the Top stood at 1.64 OD450.

B4: 219 hIgG2 (antibody, V domains shown)
VH: EVQLVESGGGLVKPGGSLKLSCAASGFTFSDYGMHWVRQAPEKGLEWVAYISSGSSIRYYADTVKGRFTISRDNAKNTLFLQMTSLRSEDTAIYYCARDLYYDHVLDYWGQGTTLTVSS
VL: DIQMTQSPSSLSASLGERVSLTCRASQEVSGYLNWLQQKPDGTIKRLIYAASTLDSGVPKRFSGSRSGSDYSLTISSLESEDFADYYCLQYASYPRTFGGGTKVEIKR
notes: Chimeric antibody: mouse Fv fused to the human IgG2 constant region; also called chimeric antibody 219
Regarding B4, in test [1], the “Blocking of ATPase activity on cell surface (293T/17-cyno CD39, CellTiter Glo): Bottom” value stood at 44500; the “Blocking of ATPase activity on cell surface (293T/17-cyno CD39, CellTiter Glo): EC50” value stood at 0.024 nM; the “Blocking of ATPase activity on cell surface (293T/17-cyno CD39, CellTiter Glo): Top” value worked out at 303000. Moreover, in test [2], the “Blocking of ATPase activity on cell surface (293T/17-huCD39, CellTiter Glo): Bottom” value was determined as 172000; the “Blocking … (293T/17-huCD39, CellTiter Glo): EC50” value is 0.01 nM; the “Blocking … (293T/17-huCD39, CellTiter Glo): Top” value was found to be 800000. In test [3], this molecule showed a Bottom of 3.81, an EC50 of 4.51 nM and a Top of 156. Further, in test [4], the Bottom worked out at 3.33, the EC50 was determined as 8.16 nM and the Top came to 214. In test [5], the Bottom came out at 0.052 OD450, the EC50 amounted to 1.69 nM and the Top was found to be 1.33 OD450.

The term EC50 denotes the concentration that produces a half-maximal response.
